From publication PMC6111544, “Development of a Novel Q-body Using an In Vivo Site-Specific Unnatural Amino Acid Incorporation System” (Sensors (Basel, Switzerland), 2018)
Where two headings read alike, the source gives them in different places.

T1: Nef protein (HIV-1 NL43), wild type (HIV-1 NL4-3 (NL43), strain)
T1 chain: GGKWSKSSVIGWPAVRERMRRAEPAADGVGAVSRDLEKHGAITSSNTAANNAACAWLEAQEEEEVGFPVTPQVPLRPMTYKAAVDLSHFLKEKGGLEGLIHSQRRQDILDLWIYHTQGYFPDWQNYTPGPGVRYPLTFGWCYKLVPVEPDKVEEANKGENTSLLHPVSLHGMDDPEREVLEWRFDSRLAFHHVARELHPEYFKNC


Legend:
[1] = target: T1, Nef protein (HIV-1 NL43), wild type
[2] = target: T1, Nef protein (HIV-1 NL43), wild type; experiment: far-Western, overlay or dot blot; Western blotting: Nef wt and Nef Δ2-11 resolved by SDS-PAGE, transferred to PVDF, probed with the anti-Nef antibody, detected with anti-streptavidin IgG-HRP; anti-His-tag antibody as control; settings: both partners purified

| Binder | binding result [1] | binding result [2] |
| --- | --- | --- |
| anti-Nef (antibody, V domains shown) VH: QVQLQQSGAELVKPGASVKLSCTASGFNIKDTYMHWVKQRPEQGLEWIGRIDPANGNTKYDPKFQGKATITADTSSNTAYLQLSSLTSEDTAVYYCASYYGIYWGQGTTLTVSS VL: DIKMTQSPSSLSASLGERVSLTCRASQEISGYLSWLQQKPDGTIKRLIYAVSTLDSGVPKRFSGSRSGSDYSLTISSLESEDFADYYCLQYATYPLTFGAGTKLELK | binds |  |
| anti-Nef antibody (single-chain variable fragment for which the antigen is HIV Nef protein) (scFv, V domains shown, scFv isolated in vitro from a constructed mouse antibody library; Section 2.4 describes expression in E. coli MV1184 and purification on an IgG-conjugated column for the antibody vectors; also called wt anti-Nef antibody; scFv) VH: EVKLVESGAELVRPGASVKLSCTASGFNIKDDYMHWVKQRPEQGLEWIGWIDPENGDTEYASKFQGKATITADTSSNTAYLQLSSLTSEDTAVYYCTTRDVWGAGTTVTVMA VL: DIKMTQSPSSLSASLGERVSLTCRASQEISGYLSWLQQKPDGTIKRLIYAVSTLDSGVPKRFSGSRSGSDYSLTISSLESEDFADYYCLQYATYPLTFGAGTKLELK |  | binds |
